In publication doi:10.1101/2022.10.17.512557:

Target: proteasomal catalytic (20S) particle (rat (endogenous in cultured cortical neurons)) (UniProt P48004)
Test: native gel or EMSA

UniProt P48004, sequence (P48004 whole entry, looked up): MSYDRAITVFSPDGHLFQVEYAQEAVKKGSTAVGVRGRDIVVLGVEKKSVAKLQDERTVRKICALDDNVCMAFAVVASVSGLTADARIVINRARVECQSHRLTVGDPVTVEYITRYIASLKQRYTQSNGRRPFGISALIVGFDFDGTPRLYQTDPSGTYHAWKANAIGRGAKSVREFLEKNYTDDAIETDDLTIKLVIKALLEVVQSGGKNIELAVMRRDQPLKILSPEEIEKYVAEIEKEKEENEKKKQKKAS

Substance: proteasomal regulatory (19S) particle (from UniProt P62193 1-440) (complex)
- percent of total 20S in the free 20S band (neurite fraction): 50%
